In publication PMC5656576:

Experiments:
[1] = target: NP (nucleoprotein), His-tagged (Influenza A virus, UniProt P03466 1-498); assay: EMSA; details: protein: recombinant; tags: C-terminal His tag (encoded in primer); label: 32P; single strand; partly complementary ends
[2] = target: NP in preformed NP-UAP56 complex (Influenza A virus, UniProt P03466 1-498); assay: EMSA; details: protein: recombinant; tags: C-terminal His tag (encoded in primer); chain copies: 6; label: 32P; single strand; partly complementary ends
Sequence of NP in preformed NP-UAP56 complex (P03466 whole entry, one chain of several): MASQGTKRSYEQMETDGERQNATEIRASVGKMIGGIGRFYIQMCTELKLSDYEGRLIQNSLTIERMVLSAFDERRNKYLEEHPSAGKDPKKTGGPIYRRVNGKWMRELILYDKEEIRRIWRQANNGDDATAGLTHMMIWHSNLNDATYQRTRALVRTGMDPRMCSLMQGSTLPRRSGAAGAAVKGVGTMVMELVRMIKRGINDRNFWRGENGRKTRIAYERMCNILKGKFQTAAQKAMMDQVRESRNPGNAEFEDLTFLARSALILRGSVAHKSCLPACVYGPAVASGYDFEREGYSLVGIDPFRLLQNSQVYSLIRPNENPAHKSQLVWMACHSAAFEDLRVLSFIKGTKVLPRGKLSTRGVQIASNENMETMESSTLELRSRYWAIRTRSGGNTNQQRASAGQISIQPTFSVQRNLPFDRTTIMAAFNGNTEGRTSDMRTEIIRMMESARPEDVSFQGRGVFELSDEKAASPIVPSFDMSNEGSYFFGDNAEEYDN

UAP56 [3] = target: T1, UAP56 (UniProt Q13838 1-428); assay: EMSA; details: protein: recombinant; tags: GST tag removed with PreScission protease; chain copies: 2; label: 32P; single strand; partly complementary ends
T1 sequence (Q13838 whole entry): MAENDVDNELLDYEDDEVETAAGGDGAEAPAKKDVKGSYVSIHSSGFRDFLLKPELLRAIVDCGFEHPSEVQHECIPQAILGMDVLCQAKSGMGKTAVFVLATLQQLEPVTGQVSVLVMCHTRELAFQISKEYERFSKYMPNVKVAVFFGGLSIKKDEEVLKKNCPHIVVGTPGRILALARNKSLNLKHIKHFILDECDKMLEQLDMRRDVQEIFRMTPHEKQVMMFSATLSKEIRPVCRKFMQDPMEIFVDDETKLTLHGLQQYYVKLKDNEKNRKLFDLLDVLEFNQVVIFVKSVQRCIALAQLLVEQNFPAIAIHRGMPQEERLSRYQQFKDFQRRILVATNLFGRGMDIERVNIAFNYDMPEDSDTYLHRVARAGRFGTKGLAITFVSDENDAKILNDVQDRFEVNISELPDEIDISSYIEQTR

UAP56 [4] = target: T1, UAP56; assay: EMSA; UAP56 alone, 0.8-7.2 pmol; details: protein: recombinant; tags: GST tag removed with PreScission protease; chain copies: 2; label: 32P; single strand; partly complementary ends

Sequence of NP (nucleoprotein), His-tagged (P03466 whole entry): as the sequence (P03466 whole entry, one chain of several) above

Binder	binding result [1]	binding result [2]	binding result (UAP56 [3])	binding result (UAP56 [4])
53 nt model vRNA (ssRNA) RNA: AGUAGAAACAAGGGUGUUUUUUCAUAUCAUUUAAACUUCACCCUGCUUUUGCU	binds	binds	no binding	
165 nt model vRNA (ssRNA) RNA: AGUAGAAACAAGGUCGUUUUUAAACUAUUCGACACUAAUUGAUGGCCAUCCGAAUUUAUGGUCCACGGUGGUUUUUGUGAGUAUCUCGCGGGUGCGAGACUGCGACAUUAGAUUUCUUAGUUCUUUUAUUCUUUCCAUAUUGAAUAUAAUUGACCUGCUUUCGCU	binds	binds		no binding
